Patent US9144594B2, “Cathepsin L mediated diseases and associated methods and products” (University of Miami, priority 2005, dated 2015)

Legend:
mice = assay: Protein in urine after in vivo gene delivery of dynamin mutants into healthy mice (Bradford); set-up: species or system mouse; conditions: Table 5 Basic Phenotype, podocin-driven vectors
Description: Next, the level of urinary protein loss following gene delivery of dynamin mutants was examined (Table 2). […] The expression of K44A was associated with severe proteinuria (1.18 mg/ml) at peak gene expression time of 10 hours post injection. The reduction in gene expression was paralleled by a reduction in proteinuria (0.77 mg/ml). Gene transfer of dynR725A caused an increase in proteinuria (0.58 mg/ml). Although this was not a significant increase, it is probable that it is a consequence of the partial podocyte FP effacement seen after gene transfer of dynR725A, and due to increase in the stress fibers formation observed in cultured podocytes.
To explore whether functional dynamin is required for the maintenance of FP morphology in healthy kidneys, it was examined whether expression of dominant negative dynK44A disrupts podocyte function. […] In contrast, podocin driven expression of dynK44A, the dynamin mutant that cannot bind GTP, caused FP effacement (FIG. 21B) and proteinuria (1.1±0.26 mg/ml) at the peak of gene expression […] after gene delivery (FIGS. 21D and 25C). […] In other words, tight regulation of the life-time of the GTP-bound form of dynamin appears to be required for normal FP morphology and ultrafiltration.
CatL plasmids encoding short and long CatL (Goulet et al., Biol Chem 387, 1285-1293 (2004)), Dyn1 plasmids (pcDNA-driven) or p2.5 Podocin-driven (Moeller et al., Genesis 35, 39-42 (2003)) were introduced into mice (n>10, each construct) using the TransIT in vivo gene delivery system according to the manufacturer's instruction (Mirus Bio Corporation, Madison, Wis.). 10 and 24 h after gene delivery, proteinuria was assessed by Multistix 8 SG strips (Bayer Corporation, Elkhart, Ind.), and Bradford protein assay (Sigma, Saint Louis, Mo.). From the same urines the protein creatinine ratio was determined with Albuwell M and Creatinine Companion protein creatinine ELISA kits (Exocell Inc., Philadelphia, Pa.).

[1] = system: LPS induced mouse proteinuria model; assay: LPS induced mouse proteinuria model, protein in urine (prevention and reversal by dynamin gene delivery); type: in vivo; conditions: Table 5 Reversal, 2xLPS
Description: Next, it was examined whether gene transfer of dynR725A and dynL356Q, G358V was able to protect from LPS induced changes of podocyte FP and thus proteinuria (FIGS. 6A-B); (Table 2B). […] Whereas the application of wildtype dynamin was unable to protect from LPS induced podocyte FP effacement (data not shown) and proteinuria (0.63 mg/ml after 24 hours, p<0.05 and 1.18 mg/ml after 48 hours, p<0.04); table 2B, the co-administration of R725A together with LPS completely abolished the development of proteinuria after 24 hours (0.20 mg/ml). Podocyte FPs remained normal at this timepoint (FIG. 6B). The decline of R725A expression in podocytes was then associated with the development of proteinuria (1.25 mg/ml, 48 h). At this time point, there was noticeable podocyte FP effacement. The application of the cathepsin L resistant dynamin mutant L356Q, G358V together with LPS conferred a partial protection from proteinuria (0.47 mg/ml, P<0.05). This protection was associated with normal appearing podocyte FP (FIG. 6C). Although this protection was not as strong as the one provided by dynR725A, it was prolonged and was still present even after the second dose of LPS ([…], P<0.04). This observation argues that lower expression levels of dynL356Q, G358V are required to protect from LPS induced FP effacement but the presence of dynR725A has the most powerful protection.
Another set of experiments was carried out to study whether dynR725A and dynL356Q, G358V are also useful once there is already established podocyte damage and proteinuria (reversal experiments), (FIGS. 6C, D); (Table 2C). First LPS was injected in mice at 0 and 24 hours and the course of urinary protein loss was documented. On the peak phase of proteinuria at 48 hours after the first LPS injection, either delivery solution (control), dynR725A or dynL356Q, G358V dynamin mutants were transferred and the morphology of podocyte FP was analyzed and the degree of proteinuria was determined 10 hours later when there was strong expression of the transferred gene in podocytes. […] A dramatic reformation of podocyte FPs was also observed (FIG. 6C). The same observation was true for L356Q, G358V (FIG. 6D) which was able to reduce proteinuria from 1.20 mg/ml to 0.71 mg/ml). From the in vitro data it was determined that R725A starts to self assemble into higher order structures in the LPS setting which render dynamin assembly domain protected from cathepsin L cleavage. […] In addition, dominant activating dynR725A proves useful because despite causing podocyte damage in wildtype mice, it can resist cathepsin L cleavage by self assembly in the LPS setting and have strong activity by impairment in its GTP hydrolysis.
If dynamin is a target of CatL, then dynL356Q and dynR725A, which are resistant to CatL cleavage, might protect kidneys from LPS. In control mice, two injections of LPS led to FP effacement (FIG. 21C) and a large increase in proteinuria (FIG. 21E, Con).
Next it was examined whether dynL356Q and dynR725A can reverse already established proteinuria. LPS was injected into mice at 0 and 24 hours. At the peak of proteinuria at 48 hours, mice were injected with dynWT, dynL356Q, or dynR725A, and the degree of proteinuria was analyzed 12 hours post injection. […] The rescue could be achieved with both podocin and CMV-driven protein expression.
All animal studies were approved by the MGH Subcommittee for Research Animal Care. C57BL6 mice were obtained from Jackson Laboratory (Bar Harbor, Me.). CatL−/− mice are in a pure C57BL6 background (Nakagawa et al., Science 280, 450-453 (1998)). LPS induced mouse proteinuria model was utilized as previously described (Reiser et al., J Clin Invest 113, 1390-1397 (2004)). Rat PAN nephrosis model was induced by a single intravenous injection of PAN (180 mg/kg body wt; Sigma-Aldrich, St. Louis, Mo.) (Kim et al., Am J Physiol Renal Physiol 286, F922-935 (2004)). […]

Molecule | Protein in the urine (mice; t = 0) [mg/mL] | Protein in the urine (mice; t = 14 h) | Protein in the urine (mice; t = 24 h) | Protein in the urine ([1]; t = 0) [mg/mL] | Protein in the urine ([1]; t = 48 h) [mg/mL] | Protein in the urine ([1]; t = 58 h)
R725A (podo): podocin promoter-driven dynR725A vector, gene delivery (protein, UniProt Q05193 1-864, looked up, variant R725A, podocin promoter vector, podocin promoter-driven dynR725A vector, gene delivery) Dynamin-1: MGNRGMEDLIPLVNRLQDAFSAIGQNADLDLPQIAVVGGQSAGKSSVLENFVGRDFLPRGSGIVTRRPLVLQLVNATTEYAEFLHCKGKKFTDFEEVRLEIEAETDRVTGTNKGISPVPINLRVYSPHVLNLTLVDLPGMTKVPVGDQPPDIEFQIRDMLMQFVTKENCLILAVSPANSDLANSDALKVAKEVDPQGQRTIGVITKLDLMDEGTDARDVLENKLLPLRRGYIGVVNRSQKDIDGKKDITAALAAERKFFLSHPSYRHLADRMGTPYLQKVLNQQLTNHIRDTLPGLRNKLQSQLLSIEKEVEEYKNFRPDDPARKTKALLQMVQQFAVDFEKRIEGSGDQIDTYELSGGARINRIFHERFPFELVKMEFDEKELRREISYAIKNIHGIRTGLFTPDMAFETIVKKQVKKIREPCLKCVDMVISELISTVRQCTKKLQQYPRLREEMERIVTTHIREREGRTKEQVMLLIDIELAYMNTNHEDFIGFANAQQRSNQMNKKKTSGNQDEILVIRKGWLTINNIGIMKGGSKEYWFVLTAENLSWYKDDEEKEKKYMLSVDNLKLRDVEKGFMSSKHIFALFNTEQRNVYKDYRQLELACETQEEVDSWKASFLRAGVYPERVGDKEKASETEENGSDSFMHSMDPQLERQVETIRNLVDSYMAIVNKTVRDLMPKTIMHLMINNTKEFIFSELLANLYSCGDQNTLMEESAEQAQRADEMLRMYHALKEALSIIGDINTTTVSTPMPPPVDDSWLQVQSVPAGRRSPTSSPTPQRRAPAVPPARPGSRGPAPGPPPAGSALGGAPPVPSRPGASPDPFGPPPQVPSRPNRAPPGVPSRSGQASPSRPESPRPPFDL | 0.29 ± 0.10 | 0.79 ± 0.22 (4.4 × 10^−5) mg/ml | 0.45 ± 0.18 (3.6 × 10^−2) mg/ml | 0.23 ± 0.07 | 1.26 ± 0.34 | 0.49 ± 0.23 (1.6 × 10^−4) mg/ml
L356Q (podo): podocin promoter-driven dynL356Q vector, gene delivery (protein, UniProt Q05193 1-864, looked up, variant L356Q, podocin promoter vector, podocin promoter-driven dynL356Q vector, gene delivery) Dynamin-1: MGNRGMEDLIPLVNRLQDAFSAIGQNADLDLPQIAVVGGQSAGKSSVLENFVGRDFLPRGSGIVTRRPLVLQLVNATTEYAEFLHCKGKKFTDFEEVRLEIEAETDRVTGTNKGISPVPINLRVYSPHVLNLTLVDLPGMTKVPVGDQPPDIEFQIRDMLMQFVTKENCLILAVSPANSDLANSDALKVAKEVDPQGQRTIGVITKLDLMDEGTDARDVLENKLLPLRRGYIGVVNRSQKDIDGKKDITAALAAERKFFLSHPSYRHLADRMGTPYLQKVLNQQLTNHIRDTLPGLRNKLQSQLLSIEKEVEEYKNFRPDDPARKTKALLQMVQQFAVDFEKRIEGSGDQIDTYEQSGGARINRIFHERFPFELVKMEFDEKELRREISYAIKNIHGIRTGLFTPDMAFETIVKKQVKKIREPCLKCVDMVISELISTVRQCTKKLQQYPRLREEMERIVTTHIREREGRTKEQVMLLIDIELAYMNTNHEDFIGFANAQQRSNQMNKKKTSGNQDEILVIRKGWLTINNIGIMKGGSKEYWFVLTAENLSWYKDDEEKEKKYMLSVDNLKLRDVEKGFMSSKHIFALFNTEQRNVYKDYRQLELACETQEEVDSWKASFLRAGVYPERVGDKEKASETEENGSDSFMHSMDPQLERQVETIRNLVDSYMAIVNKTVRDLMPKTIMHLMINNTKEFIFSELLANLYSCGDQNTLMEESAEQAQRRDEMLRMYHALKEALSIIGDINTTTVSTPMPPPVDDSWLQVQSVPAGRRSPTSSPTPQRRAPAVPPARPGSRGPAPGPPPAGSALGGAPPVPSRPGASPDPFGPPPQVPSRPNRAPPGVPSRSGQASPSRPESPRPPFDL | 0.24 ± 0.05 | 0.45 ± 0.12 (2.5 × 10^−3) mg/ml | 0.35 ± 0.018 mg/mL | 0.29 ± 0.05 | 1.36 ± 0.49 | 0.73 ± 0.29 (6.9 × 10^−3) mg/ml
